“Also recorded” adds a separate entry of the source. Each block holds one molecule with its values, some of them ahead of it.
Columns and labels:
HUVEC = assay: TEER analysis of endothelial barrier function; assay type: cell-based, human; settings: HUVEC; S1P 10-300 nM, A1M 0.8-24 μg/ml; unloaded controls up to 24 μg/ml
Description: Transendothelial Electrical Resistance (TEER) was performed on HUVEC as described previously (Swendeman et al, 2017). Essentially, HUVECs were maintained in HUVEC Growth Medium (HGM; M199 medium supplemented with 10% FCS (Corning), 1:100 Pen-Strep (Sigma), 8 mM Glutamine (Sigma), Heparin (Sigma, 100 U, LMW) and Sheep Brain Extract prepared (REF). All cultures were maintained on Fibrobronectin (2 μg/ml) coated plates. For TEER analysis a 96 well ECIS system (96W10idf PET array, Applied BioPhysics) was employed. Wells were coated with Fibronectin (2 μg/ml) resuspended in saline for 30 minutes at room temp. HUVECs were harvested, resuspended in HGM at a cell density of 25-30×10^3 cells/well and allowed to adhere overnight. Prior to analysis, culture media was removed and replaced with M199 media supplemented with Pen-Strep/Glutamine and 1% FCS for 30 minutes. For stimulation studies, either Iloprost (Cayman Biochemicals) or Iloprost loaded onto ApoA1 or ApoA1-ApoM chaperones, or S1P prepared on ApoA1-ApoM or ApoM-Fc chaperones were added to cultures and TEER studies were performed from 3-24 hours.

NF-κB = assay: TNFα-induced NF-κB luciferase reporter assay in HMEC; assay type: cell-based, human
Description: TNFα-dependent NF-κB signaling was determined by using an NFκB-Luciferase based reporter assay system (pGL4.32[luc2P/NF-κB-RE/Hygro]; Promega). A stable NFκB reporter cell line in human microvascular endothelial cells (HMEC-1; ATCC) was created. HMEC were maintained in 10% FCS/Pen-Strep MCDB media supplemented with 2 mM L-Glutamine (Sigma), EGF (2 ng/ml; R&D systems) and Hydrocortisone (1 ng/ml; Sigma). […] The 5×10^5 reporter cells were distributed to 12 well plates and allowed to adhere for 24 hours. Media was replaced with MCDB media supplemented with 1% FCS, L-Glutamine. […] Samples were extracted using cell lysis buffers (Promega), luciferin substrate was added and the plates were measured for […] at 470 nm for 8-15 minutes in a SpectraMax L 96-well plate reader (Molecular Devices).

ICAM-1 = assay: TNF-α-induced ICAM-1 expression in HUVEC (western blot); assay type: cell-based, human; settings: 10 min pretreatment, TNFα 10 ng/ml 5 hours, 200 μg/ml
Description: HUVECs were plated as described above. After 24 hours cells were shifted to M199 media supplemented with 1% FCS, 8 mM Glutamine, 1× Pen-Strep. After 30 minutes, cells were pretreated for 10 minutes with media, ApoM-Fc-S1P (100 nM S1P), Iloprost (100 nM), ApoA1-ApoM (200 μg/ml), ApoA1-ApoM-Iloprost (200 ug/ml; 100 nM Iloprost) or ApoA1-ApoM-S1P (200 μg/ml 100 nM S1P) or in combinations and subsequently treated with TNF-α (10 ng/ml). After 5 hours, cells were lysed with cell lysis buffer (TBS-T; 20 mM Tris-pH8, 160 mM NaCl, 1% Triton, 1× protease inhibitor cocktail (Sigma)), collected and centrifuged at 20,000×g for 5 minutes at 4° C., extracts were analyzed by 10% SDS-PAGE, transferred to nitrocellulose membrane (Bio-Rad), blocked in 5% milk, and probed with antibodies to ICAM-1 (1:1000, sc-8439, Santa Cruz Biotech) and Actin (1:5000, sc-8432, Santa Cruz Biotech). Blots were developed with appropriate secondary antibodies linked to HRP and visualized by chemiluminescence (Immobilon Western, EMD Millipore) using a ChemiDoc Imaging (Biorad).

Neutrophils = assay: fMLP-dependent neutrophil ROS generation; assay type: cell-based, mouse; settings: ApoM-S1P 100 nM S1P, ApoA1-Iloprost 160 nM drug, area under the curve
Description: Peritoneal Neutrophils were isolated from C57Bl/6 mice after thioglycolate elicitation. Thioglycolate (2 ml of 2% v/v) resuspended in water was administered by intraperitoneal injection. After 4 hours, mice were euthanized and 5 ml of HBSS was injected intraperitoneally, the abdomen was messaged for 1 minute and the peritoneal fluid was removed. The resulting cells were pelleted, RBCs were lysed with ACK buffer, re-pelleted and resuspended in PBS-glucose. Cells were counted, 5×10^5 cells were dispersed into 96 well clear bottom plates containing luminol 100 mM and 10 U/ml of horseradish peroxidase and read for blank background. F-Met-Leu-Phe (fMLP; 10 μM) was added and plates were read on a SpectraMaxL1 (Molecular Devices, San Jose, CA) over 5 minutes as described previously. The area under the curve was calculated by using GraphPad Prism 7 (GraphPad Software, San Diego, CA).

inhibition of TNFα-induced NF-κB activity at higher doses (NF-κB; 100-400 μg/ml, bi-phasic dose-response): not as inhibitory
inhibition of TNFα-induced NF-κB activity (NF-κB; low doses 25-50 μg/ml): ~25%
B1: A1M: recombinant fusion protein of Apolipoprotein A1 and Apolipoprotein M with GGGGS linker and 6x His tag (SEQ ID NO: 23) (protein)
chain: MKAVVLAVALVFLTGSQAWHVWQQDEPQSQWDKVKDFANVYVDAVKDSGRDYVSQFESSSLGQQLNLNLLENWDTLGSTVSQLQERLGPLTRDFWDNLEKETDWVRQEMNKDLEEVKQKVQPYLDEFQKKWKEDVELYRQKVAPLGAELQESARQKLQELQGRLSPVAEEFRDRMRTHVDSLRTQLAPHSEQMRESLAQRLAELKSNPTLNEYHTRAKTHLKTLGEKARPALEDLRHSLMPMLETLKTKAQSVIDKASETLTAQTRTRPLGGGGSNQCPEHSQLTALGMDDTETPEPHLGLWYFIAGAASTTEELATFDPVDNIVFNMAAGSAPRQLQLRATIRTKSGVCVPRKWTYRLTEGKGNMELRTEGRPDMKTDLFSSSCPGGIMLKETGQGYQRFLLYNRSPHPPEKCVEEFQSLTSCLDFKAFLVTPRNQEACPLSSKHHHHHH
enhancement of endothelial barrier function (TEER) (HUVEC): no functional barrier protection; also recorded: did not induce endothelial barrier enhancement
inhibition of TNFα-induced ICAM1 expression (ICAM-1): inhibiting downstream inflammatory ICAM1 expression

B2: ApoM-S1P: ApoM-bound S1P as named in FIG. 6 results; chaperone form not specified (protein, UniProt O95445 1-188, looked up)
Apolipoprotein M: MFHQIWAALLYFYGIILNSIYQCPEHSQLTTLGVDGKEFPEVHLGQWYFIAGAAPTKEELATFDPVDNIVFNMAAGSAPMQLHLRATIRMKDGLCVPRKWIYHLTEGSTDLRTEGRPDMKTELFSSSCPGGIMLNETGQGYQRFLLYNRSPHPPEKCVEEFKSLTSCLDSKAFLLTPRNQEACELSNN
modifications: bound S1P
notes: chaperone form not specified
inhibition of neutrophil ROS generation (Neutrophils): ~42%
